Source: the domain aggregation screens of Martell et al. (2025)

Assay: soluble fraction after stress (log2 fold change); higher = more stays soluble; pooled small domains, quantitative proteomics
Details: stress: 75 degC
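Further: 20 min heating vs room temperature control held 20 min.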

| Sequence | soluble fraction (log2) |
| --- | --- |
| HMFDEDKLIISIGSKVRIIREPYFGTIGKVVELPPELVKMDTEAMLRVAIIKLDDGEKVTIPRANLEVILS | -2.43 |
| HMFDEVKDAARRLAALLDQAGGTLTLNDKSAPEEVAALTGMSKKVFKRALGHLMSRSEVVVADGRITKKD | -0.709 |
| HMFDGRSDAEKTLDLIKTAIDNILKGGAIQEYKIGTRTAKKYDMAELQVLKGEYAAMVAREKQAETMA | -0.412 |
| HMFDGVAAGKPAILDALEDAGGFLPLNSKSSVEEIQASFSFSKRVFKQLIGMLYKERKIVITDDGIRLAD | -0.279 |
| HMFDGYQWLKRDIIRGVYQPEEKLRMSLLTNRYGLGVGPLREALSQLVAEHLVTVVSQKGYRVAPM | -0.387 |
| HMFDKNKPVVVEGENAEVALKKVSKYFNVPTEKLDYTLLGQKSAGLLGIGSKVYQFKVWLKREIP | -0.249 |
| HMFDLENIRLTLARRLNVAAHLRPKYVAGFTLLLKQNFPEQNAEDLLNRLEHNQWLKVNQREIEYSPRLLM | -1.63 |
| HMFDPAKQMQRIRKYAGMNRKEFSEWLNIPYRTMTDWELGNRTMPVYLLELIVYKVNHEIANA | 0.588 |
| HMFDREKFIKLGQEFARVAFENVNKRATDRALKTAAKHYGLPSADELLARLGSSEIAARDVVAELYPNL | -0.856 |
| HMFDSYDIYDEAGNTVNTVKGKLSWGHLLEIYDRFDNHIGTVQERVLTFLPKFLMYINGQEIGEIR | -0.164 |
| HMFDVNSMIAANIVAILKKQNRKQIDLAGALQTNKQTISKMLNGSRMINAIELKRIAEFLGVKMEELTKL | -2.23 |
| HMFDVRWEQGYALAAAYAQEYGNLDVPRDYKTADGKKLGRWIQSQEQAYEQKKLSEEQISRLEMIGMQWG | -0.98 |
| HMFEDEPSEREIRISTLLAAFLKQEDGGTAVSRERFLKENSDVAEDLQILLEMADMIQEMAGP | -0.546 |
| HMFEKIDINFADIHQLKGLPLNSEQINSIIEYRNQNGFIENIYDLKNVNGISIDKVHELKSYIFIIDV | -2.58 |
| HMFENPRALLEMMISLGNEQGLINMARDIVSAGEFRRLELAAGGDRRKLARMLIDHLVEVAPRLP | -0.915 |
| HMFEQFEVENLQELQQEWGDKFNHNLEMARRAFMNFATPEAVKVLEETGMGNHPELLKVFARIGEVLAED | -0.968 |
| HMFERINLIGVNGTTKKRSALVRLLDGEIVKIGVGDSLNGGQVVDISPATLTYLKSGKSIMLTLPK | -1.79 |
| HMFGQRLRLARKRAGLSMQALAQRMSPPVTAQAISKYEADRMMPSSAVLVGLGKALGVSLDFLMGGQ | -2.14 |
| HMFHFELNAAKQALEDRKTIDRAKGILMRQRGMSEDDAYKLLRTTAMSQNRKVIDVAQALVTAADLL | -0.632 |
| HMFINTVELGRAIKRRREELGLSLRDVADVTNVSASTLSRIENGTGKPDADNIARLTGWLDMPIDRVM | -0.161 |
| HMFIRINQTQNSPRKSVQIVESKRDGHKVRTKILRHVGIAMDDVELQKLKSLAQDIIAKMTVETENASKQ | -0.529 |
| HMFKINQKVKLIAPLPYLKTSENMPMLRPPDLVAIDEIGEVLSLKSPETVEVRFRRGSFLIDIDKLEKVD | -1.77 |
| HMFKYLLDTNIVIYVIKKRPIEVMGVFNQNANRMAISAITFSELQHGAEKSVRVQENLNAIEEFTTLIDI | -0.0448 |
| HMFKYRELLDWAKNRFDDLEVSIAPKALALLVESIGTDLRLLDSEIQKLSMYKPLEMISTNDVEDLVA | -1.01 |
| HMFLTDHEVSKVARKRAHAEYLSSLSWRQRTFGDHGERSKNFEAWYKEHSHLYETEKLYKELYKN | -1.03 |
| HMFLTPLEEARLVIEEIVIPKNIAVDLSPRPSALRKQQHELIAHYQLKSFSVGNERTKRLRILPKVI | 0.229 |
| HMFMLQAKRVPVSELENFKGIVAEDVVSQSRALILPRGSNLSWLSSSAMQNLSTRLALEGVESISIYL | -2.68 |
| HMFMVAGHLSEKNGYFYAVINYNDSLGNRKTKWMSTGLTVKGNKKRAEAILAEKRRTFQPDEPV | -1.71 |
